Target: BKV serotype 1 VP1 (30-297) pentamer (BK polyomavirus)
Assay: AlphaScreen or HTRF

APQWMLPALLGLY [D1min L297A]
binding result: binds

B1: D1min W293A (peptide)
peptide: APQAMLPLLLGLY
modifications: N-terminal acetyl, C-terminal amide (Ac-APQAMLPLLLGLY-NH2, printed for the NMR samples)
binding result: binds

APQWMLPLALGLY [D1min L298A]
binding result: binds

Source: publication doi:10.1101/720318 (bioRxiv, 2019)
